{
  "source": "paper PMC3836952",
  "key": {"[1]": {"molecular_target": "His163 (UniProt position 288, GKQLNHGVLLV)", "test": "kinetics", "conditions": "35 °C, constant ionic strength (four-component buffer; value not stated), 25 mM glycine, 25 mM acetic acid, 25 mM Mes, 75 mM Tris, 5 mM DTT, pH adjusted with HCl or NaOH"}, "[2]": {"molecular_target": "Cys25 (UniProt position 150, GACGSCWAFSA)", "test": "kinetics", "conditions": "35 °C, constant ionic strength (four-component buffer; value not stated), 25 mM glycine, 25 mM acetic acid, 25 mM Mes, 75 mM Tris, 5 mM DTT, pH adjusted with HCl or NaOH"}, "[3]": {"conditions": "Enzyme-substrate complex (saturating Z-FR-MCA) in the presence of 40 µM heparin (10 kDa bovine lung heparin)"}, "[4]": {"conditions": "Enzyme-substrate complex (saturating Z-FR-MCA), no heparin (control)"}},
  "data": [
    {"substance": "Cysteine protease B isoform CPB2.8 lacking the C-terminal extension (CPB2.8ΔCTE, rCPB2.8), cathepsin L-like (Leishmania mexicana; none (C-terminal extension deleted; residue range not stated))", "values": [
      {"measurement": "pKa", "setting": "[1]; [3]", "value": "8.8±0.1"},
      {"measurement": "pKa", "setting": "[1]; [4]", "value": "7.8±0.1"},
      {"measurement": "pKa", "setting": "[2]; [3]", "value": "4.6± 0.1"},
      {"measurement": "pKa", "setting": "[2]; [4]", "value": "5.1±0.1"}
    ]}
  ]
}
